Reference: paper PMC4743056

Legend:
Assay in all cases: fluorescence polarization
[1] = target: hPRDM9A ZnF8-13 (Homo sapiens, allele A, UniProt Q9NQV7 717-894)
[2] = target: hPRDM9A ZnF8-11 (Homo sapiens, allele A, UniProt Q9NQV7 717-830)
[3] = target: hPRDM9 ZnF8-12 N789H (allele L20) (Homo sapiens, allele L20, UniProt Q9NQV7 717-858, N790H)
[4] = target: hPRDM9A ZnF8-12 (allele A) (Homo sapiens, allele A, UniProt Q9NQV7 717-858)
hPRDM9A ZnF8-12 (allele A), sequence (Q9NQV7 717-858): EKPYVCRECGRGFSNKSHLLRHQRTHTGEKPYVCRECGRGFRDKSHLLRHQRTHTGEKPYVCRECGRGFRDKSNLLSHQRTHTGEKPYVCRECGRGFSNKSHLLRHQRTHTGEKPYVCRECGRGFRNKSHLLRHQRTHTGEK

hPRDM9A ZnF8-11, sequence (Q9NQV7 717-830): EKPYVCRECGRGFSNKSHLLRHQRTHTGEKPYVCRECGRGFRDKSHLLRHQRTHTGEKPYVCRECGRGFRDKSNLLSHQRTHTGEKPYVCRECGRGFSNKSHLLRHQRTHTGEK
hPRDM9A ZnF8-13, sequence (Q9NQV7 717-894): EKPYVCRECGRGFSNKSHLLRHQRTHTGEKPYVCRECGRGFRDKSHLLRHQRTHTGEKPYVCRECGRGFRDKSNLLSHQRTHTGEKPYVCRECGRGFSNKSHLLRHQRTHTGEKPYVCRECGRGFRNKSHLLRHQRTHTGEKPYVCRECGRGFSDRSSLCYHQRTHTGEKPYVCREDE
hPRDM9 ZnF8-12 N789H (allele L20), sequence (Q9NQV7 717-858 N790H): as the sequence (Q9NQV7 717-858) above, with N74H counted along it

B1: THE1B 24-bp (dsDNA)
DNA 1: GAGGCCTCCCTAGCCACGTGGAAC
DNA 2: GTTCCACGTGGCTAGGGAGGCCTC
**Q.** How did the binding signal [1] turn out when B1 was run?
**A.** Its binding signal is ~1 fold (similar to ZnF8-12).

**Q.** What about the binding signal [2] of the same binder?
**A.** Its binding signal is ~12 fold lower affinity than ZnF8-12.

B2: THE1B T:A to C:G (dsDNA)
DNA 1: GAGGCCTCCCCAGCCACGTGGAAC
DNA 2: GTTCCACGTGGCTGGGGAGGCCTC
**Q.** Does B2 bind [3]?
**A.** Result: binds

B3: THE1B with 5mC at position 17 bottom strand (dsDNA)
DNA 1: GAGGCCTCCCTAGCCACGTGGAAC
DNA 2: GTTCCACGTGGCTAGGGAGGCCTC
modifications: 5-methylcytosine at bottom strand base 7 (C of G:C bp 17)
**Q.** For B3, which binding signal [4] is on record?
**A.** The binding signal was ~1 fold (same as unmethylated).
